Sequences and labels used below:
B1: HypD (native, untagged) (natural protein, E. coli, UniProt P24192 1-373, looked up)
chain: MRFVDEYRAPEQVMQLIEHLRERASHLSYTAERPLRIMEVCGGHTHAIFKFGLDQLLPENVEFIHGPGCPVCVLPMGRIDTCVEIASHPEVIFCTFGDAMRVPGKQGSLLQAKARGADVRIVYSPMDALKLAQENPTRKVVFFGLGFETTMPTTAITLQQAKARDVQNFYFFCQHITLIPTLRSLLEQPDNGIDAFLAPGHVSMVIGTDAYNFIASDFHRPLVVAGFEPLDLLQGVVMLVQQKIAAHSKVENQYRRVVPDAGNLLAQQAIADVFCVNGDSEWRGLGVIESSGVHLTPDYQRFDAEAHFRPAPQQVCDDPRARCGEVLTGKCKPHQCPLFGNTCNPQTAFGALMVSSEGACAAWYQYRQQESEA
notes: Carries a [4Fe-4S] cluster; also called native HypD; WT HypD; source: E. coli BL21(DE3), co-expressed with HypC-Strep (phypDC) or with HypE, HypF and HybG-Strep (phypDEF-hybG); co-purified anaerobically
B2: HypD_(D98A) (untagged) (natural protein, E. coli, UniProt P24192 1-373, looked up)
chain: B1 chain with D98A
notes: HypD of E. coli with the D98A exchange, without a tag; source: co-purified anaerobically
B3: HypC bearing a C-terminal StrepII-tag (natural protein, E. coli, UniProt P0AAM3 1-90, looked up)
chain: MCIGVPGQIRTIDGNQAKVDVCGIQRDVDLTLVGSCDENGQPRVGQWVLVHVGFAMSVINEAEARDTLDALQNMFDVEPDVGALLYGEEK
notes: HypC, hydrogenase maturation factor of E. coli; native HypC; also called HypC-Strep; Strep-tagged HypC; source: E. coli BL21(DE3) transformed with phypDC or phypD_(D98A)hypC, purified anaerobically (Strep tag); not shown: StrepII, C-terminal, kept

The target in assay [1] is B3. As to the kind of experiment: native MS; anaerobically purified HypC-Strep/HypD complexes buffer-exchanged into 500 mM ammonium acetate, pH 6.8, about 10 uM; nano-ESI Q-TOF; MS/MS with collision-induced dissociation (90 V) of the +12 charge state of the heterodimer. Particulars: both partners purified.
The assay “HypD (native, untagged)” addresses B1. Nature of the assay: pull-down; co-purification from BL21(DE3) cells by the StrepII tag (on HypD, HypC or HybG) under anoxic conditions; 5 ug of isolated protein on SDS-PAGE, immunoblot with anti-HypD or anti-HypE antiserum (1:1000). Particulars: partners not purified. A general note: In western blotting, separated proteins are transferred to a membrane and probed.

For the assay “HypD_(D98A) (untagged)”, the target named is B2. The assay is described as above. Conditions: partners not purified.

Where a chain is given by its changes, count along the chain named. In names and notes the source's numbering stands.

For B1, the “stoichiometry N” value in assay [1] was 1 ratio HypC:HypD. For the molecule B2, in assay [1], the “stoichiometry N” value is 1 ratio HypC:HypD. As for B3, the binding result with HypD (native, untagged) was “binds”; with HypD_(D98A) (untagged), “binds”.

The values are drawn from paper PMC12130793, “A conserved aspartate residue in [4Fe-4S]-containing HypD is required for [NiFe]-cofactor biosynthesis and for efficient interaction of the HypCD scaffold complex with HypE” (Metallomics: Integrated Biometal Science, 2025).
